Reference: publication PMC4287497, “Phosphorylation of Elp1 by Hrr25 Is Required for Elongator-Dependent tRNA Modification in Yeast” (PLoS Genetics, 2015)

Experiments:
Kti12 [1] = target: Kti12 (UniProt P34253); assay: Elp2-myc IP of Elongator, anti-HA blot for Kti12; details: reference: wild type Elp1; sites S1209
Kti12 [2] = target: Kti12 (UniProt P34253); assay: GFP-trap IP of Elp1-GFP, anti-HA blot, densitometry; details: reference: wild type Elp1-GFP; sites S1209
Elp1-S1209A-GFP = target: T1, Elp1-S1209A-GFP (S. cerevisiae, UniProt Q06706 1-1349, S1209A); assay: co-IP; GFP-tagged Elp1 (genomic locus) precipitated with GFP-trap from yeast extracts; Western blot with anti-GFP and anti-HA; densitometry of Kti12-HA normalised to Elp1-GFP, wild type set to 1.0; details: partners not purified
T1 construct: Elp1 (Iki3), S. cerevisiae; also called mutant Elp1-GFP fusion; source: S. cerevisiae, expressed from its genomic locus, in cell extract
T1 sequence (looked up): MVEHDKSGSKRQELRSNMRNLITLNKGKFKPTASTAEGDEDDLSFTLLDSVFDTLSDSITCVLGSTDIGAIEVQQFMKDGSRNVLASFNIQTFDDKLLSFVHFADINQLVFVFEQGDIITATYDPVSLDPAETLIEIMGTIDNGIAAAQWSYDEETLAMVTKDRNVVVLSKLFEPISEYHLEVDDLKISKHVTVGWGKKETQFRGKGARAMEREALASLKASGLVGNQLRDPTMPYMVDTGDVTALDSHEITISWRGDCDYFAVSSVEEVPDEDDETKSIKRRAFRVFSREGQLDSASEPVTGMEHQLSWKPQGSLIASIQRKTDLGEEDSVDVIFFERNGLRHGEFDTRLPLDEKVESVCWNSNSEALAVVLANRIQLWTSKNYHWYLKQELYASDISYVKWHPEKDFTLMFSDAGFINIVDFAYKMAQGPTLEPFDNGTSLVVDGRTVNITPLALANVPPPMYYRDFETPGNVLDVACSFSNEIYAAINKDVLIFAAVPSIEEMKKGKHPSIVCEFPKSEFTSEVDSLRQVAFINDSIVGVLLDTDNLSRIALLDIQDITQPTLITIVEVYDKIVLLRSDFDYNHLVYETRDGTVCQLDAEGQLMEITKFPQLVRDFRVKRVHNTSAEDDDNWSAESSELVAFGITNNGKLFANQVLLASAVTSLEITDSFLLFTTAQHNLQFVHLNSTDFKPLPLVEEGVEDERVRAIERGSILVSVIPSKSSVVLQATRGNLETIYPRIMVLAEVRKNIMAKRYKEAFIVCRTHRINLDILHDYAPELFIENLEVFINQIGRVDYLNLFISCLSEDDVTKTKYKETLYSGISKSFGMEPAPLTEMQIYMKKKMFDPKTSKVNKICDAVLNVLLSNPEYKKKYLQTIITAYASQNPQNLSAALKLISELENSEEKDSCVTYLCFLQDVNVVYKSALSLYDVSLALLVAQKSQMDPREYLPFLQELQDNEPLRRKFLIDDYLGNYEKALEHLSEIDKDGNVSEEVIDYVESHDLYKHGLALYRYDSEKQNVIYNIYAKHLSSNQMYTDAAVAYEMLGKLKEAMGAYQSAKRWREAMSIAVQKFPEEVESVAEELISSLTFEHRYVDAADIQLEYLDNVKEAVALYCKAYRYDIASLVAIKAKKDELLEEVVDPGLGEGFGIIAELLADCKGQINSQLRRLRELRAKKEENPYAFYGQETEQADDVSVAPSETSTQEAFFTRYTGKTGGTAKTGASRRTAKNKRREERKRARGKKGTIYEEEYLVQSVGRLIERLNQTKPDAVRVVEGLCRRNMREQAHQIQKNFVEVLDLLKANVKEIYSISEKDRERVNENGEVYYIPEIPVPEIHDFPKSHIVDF

Elp1 (Iki3) (from UniProt Q06706) S1209A
binding against the reference (Kti12 [1]): stronger

Elp1 (Iki3) (from UniProt Q06706) S1209A Elp1-GFP
fold change (Kti12 [2]): stronger; reference 1.0

B1: Kti12-HA6 (natural protein, S. cerevisiae, UniProt P34253 1-313, looked up)
chain: MPLVLFTGYPCSGKTTLAKHLVQLLQSKIDATPSLSKYSITYHSDESLGIKHSDYITSQDERKLRSEIISAVKRDLSKNKIVIVDSLNYIKGFRYQLHCEVKNLSTTFCVIQTLCPPETIFEWNKTSNPNPWEPELLNQLIQRYEEPNSSNRWDSPLFAILTPQDNITDYIDDICKVVFQTSKSAKNSGHNDPLSKGLQKPNSATVLKPASQSNFIQVLDIETSKIIKTIMNHIKSLTSIGGVSNGTRVIVSEGITDINDDGCFFVDLPIGNVVTLAQLQRLKRQFINFNKLRDIDQDRIGPLFADYLNKNLN
notes: Kti12, accessory protein of Elongator, S. cerevisiae; also called HA-tagged Kti12; source: S. cerevisiae KTI12-HA6 strains, in cell extract
Kti12 co-precipitated, fold of wild-type Elp1 (Elp1-S1209A-GFP): ~2 fold of wild-type Elp1
